Experimental data as given in publication PMC10936626 (Autophagy, 2023).

Target: GST-tagged SRC, bacterially purified (human, UniProt P12931-1 1-536)
Test: pull-down

B1: Flag-tagged MEF2D protein purified from HEK293T cells (natural protein, human, UniProt Q14814-1 1-521, looked up)
chain: MGRKKIQIQRITDERNRQVTFTKRKFGLMKKAYELSVLCDCEIALIIFNHSNKLFQYASTDMDKVLLKYTEYNEPHESRTNADIIETLRKKGFNGCDSPEPDGEDSLEQSPLLEDKYRRASEELDGLFRRYGSTVPAPNFAMPVTVPVSNQSSLQFSNPSGSLVTPSLVTSSLTDPRLLSPQQPALQRNSVSPGLPQRPASAGAMLGGDLNSANGACPSPVGNGYVSARASPGLLPVANGNSLNKVIPAKSPPPPTHSTQLGAPSRKPDLRVITSQAGKGLMHHLTEDHLDLNNAQRLGVSQSTHSLTTPVVSVATPSLLSQGLPFSSMPTAYNTDYQLTSAELSSLPAFSSPGGLSLGNVTAWQQPQQPQQPQQPQPPQQQPPQPQQPQPQQPQQPQQPPQQQSHLVPVSLSNLIPGSPLPHVGAALTVTTHPHISIKSEPVSPSRERSPAPPPPAVFPAARPEPGDGLSSPAGGSYETGDRDDGRGDFGPTLGLLRPAPEPEAEGSAVKRMRLDTWTLK
Does B1 bind?
Result: binds
